According to US20240158497A1 (published 2024):

B1: bsAb19147D (bispecific antibody, V domains shown)
VH 1: QVQLVESGGGVVQPGRSLRLSCTASGFTFSSYAMYWVRQAPGKGLEWVSVIYYDGSYKYYADSVKGRFTISRDNSKNTLYLQMDSLRAEDTAVYYCASYNWNYWYFDFWGRGTLVTVSS
VH 2: EVQLVESGGGLVQPGGSLRLSCTASGFTFSNYAIFWVRQAPGKGLEYVSGISNNGVTKYYADSVRDRFTISRDNSRNTVSIQMDSLRTEDMAVYYCARENWGSDDGFDIWGQGTMVTVSS
VL: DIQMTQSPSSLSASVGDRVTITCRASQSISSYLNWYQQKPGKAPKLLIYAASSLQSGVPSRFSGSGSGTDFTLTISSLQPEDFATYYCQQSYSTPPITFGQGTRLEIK
notes: common light chain
B2: bsAb19156D (bispecific antibody, V domains shown)
VH 1: B1 VH 1
VH 2: QVQLVESGGGLVKPGGSLRLSCAASGFTFSDYYMTWIRQTPGKGLDWVSYISSSGTNKYNADSVKGRFTISRDNAKNSLYLQMNSLRAEDTAVYYCVRDPPWGMDVWGQGTTVTVSS
VL: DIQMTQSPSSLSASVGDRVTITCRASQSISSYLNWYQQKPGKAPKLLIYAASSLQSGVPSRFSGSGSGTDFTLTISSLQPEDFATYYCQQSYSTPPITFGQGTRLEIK
notes: common light chain
B3: bsAb19151D (bispecific antibody, V domains shown)
VH 1: B1 VH 1
VH 2: EVQLVESGGGLVQPGGSLRLSCAASGFTFSSYAMNWVRQAPGKGLEWVSAISGSGDSTYYTDSVKGRFTISRDNSKNTLYLQMNTLRAEDTAVYYCAKEEIVMLVGATPGWFDPWGQGTLVTVSS
VL: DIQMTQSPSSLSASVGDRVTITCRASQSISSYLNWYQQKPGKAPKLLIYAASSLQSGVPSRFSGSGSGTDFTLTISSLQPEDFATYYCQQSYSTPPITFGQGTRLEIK
notes: common light chain
B4: bsAb19154D (bispecific antibody, V domains shown)
VH 1: B1 VH 1
VH 2: QVQLQQSGPGQMKSSQTLTLTCAISGDSVSSNSAIWYWIRQSPSRGLEWLGRTKFRSKWYNDFALSMKSRITINPDTSKNQFSLHLNSVTPEDTAVYYCARYKWELYFDYWGQGTLVTVSS
VL: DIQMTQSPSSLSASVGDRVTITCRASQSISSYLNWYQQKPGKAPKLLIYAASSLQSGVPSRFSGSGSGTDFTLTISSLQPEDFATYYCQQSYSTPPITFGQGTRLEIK
notes: common light chain
B5: bsAb19148D (bispecific antibody, V domains shown)
VH 1: B1 VH 1
VH 2: QVQLVQSGTEVKKPGSSVKVSCKASGGTFSTYPINWVRQAPGQGLEWMGGIIPIFGTASYAQKFQGRVAITTDESTSTAYMELNSLRSEDTAVYYCARERPNWGSNDYWGQGTLVTVSS
VL: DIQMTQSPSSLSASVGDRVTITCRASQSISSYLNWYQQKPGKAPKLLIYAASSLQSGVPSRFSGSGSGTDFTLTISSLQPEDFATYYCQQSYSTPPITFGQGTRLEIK
notes: common light chain
B6: bsAb19155D (bispecific antibody, V domains shown)
VH 1: B1 VH 1
VH 2: EVQLVESGGGLVQPGGSLRLSCAASGFTFSTYWMNWVRQAPGKGLEWVANIKEDGSEKYYVDSVKGRFTISRDNAKNSLYLQMNSLRAEDTAVYYCAREGFGVVTYIWGQGTMVTVSS
VL: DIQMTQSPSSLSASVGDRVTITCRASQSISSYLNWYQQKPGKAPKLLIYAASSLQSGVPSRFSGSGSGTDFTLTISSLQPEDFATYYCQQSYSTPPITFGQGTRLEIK
notes: common light chain
B7: bsAb19150D (bispecific antibody, V domains shown)
VH 1: B1 VH 1
VH 2: EVQLVESGGGLVQSGGSLRLSCAASGFTFSRYEMNWVRQAPGKGLEWVAYISNTGTTRDYSDSVKGRFTISRDNAKNSLYLQMSSLRVEDTAVYYCVREKFSGTSDWFDPWGQGTLVTVSS
VL: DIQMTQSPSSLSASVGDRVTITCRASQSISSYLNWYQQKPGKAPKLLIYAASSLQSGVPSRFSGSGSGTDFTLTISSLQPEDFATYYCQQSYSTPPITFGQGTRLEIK
notes: common light chain
B8: bsAb19153D (bispecific antibody, V domains shown)
VH 1: B1 VH 1
VH 2: QVQLVQSGAEVMKPGASVKVSCRASGYTFSSYDINWVRQAPGQGLEWMGWISTATGNTNYPQKVQGRVTMTTDTSTNTAYMELRSLRSDDTAVYYCTREGNSKGWLDPWGQGTLVTVSS
VL: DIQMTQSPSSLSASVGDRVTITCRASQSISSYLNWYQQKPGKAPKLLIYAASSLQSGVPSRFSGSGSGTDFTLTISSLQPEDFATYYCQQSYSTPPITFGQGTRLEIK
notes: common light chain
B9: bsAb19152D (bispecific antibody, V domains shown)
VH 1: B1 VH 1
VH 2: EVQLVQSGAEVKKPGESLKISCKGSGYSFTSYWIDWVRQMPGKGLEWMGIIYPDDSDTRYSPSFQGQVTMSVDKSISTAYLQWSSLKASDTAIYYCARHERGIVEAGTDYYYYYGMDVWGQGTTVTVSS
VL: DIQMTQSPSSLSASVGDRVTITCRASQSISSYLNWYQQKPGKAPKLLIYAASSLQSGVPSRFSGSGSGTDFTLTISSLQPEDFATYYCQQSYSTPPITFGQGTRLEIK
notes: common light chain
B10: bsAb19149D (bispecific antibody, V domains shown)
VH 1: B1 VH 1
VH 2: QVQLVESGGGVVQPGRSLRLACAASGFTFRSYGMHWVRQAPGKGLEWVAVIWYDGSNKYYTDSVKGRFTISRDNSKNTLYLQMNSLRAEDTAMYYCAIDKWATVTTYLFDYWGQGTLVTVSS
VL: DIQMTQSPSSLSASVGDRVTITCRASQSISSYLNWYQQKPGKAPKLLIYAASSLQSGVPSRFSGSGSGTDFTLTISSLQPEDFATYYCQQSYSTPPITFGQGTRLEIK
notes: common light chain

Each binder was assayed against T1, human LEPR extracellular domain expressed with a C-terminal myc-myc-hexahistidine tag (human, UniProt P48357 22-839) (assay: SPR Biacore 4000, bsAb captured by anti-human Fc, 25 C).
T1 construct: Monomeric reagent; the whole entry is the construct with its tag; also called hLEPR-MMH; hLEPR.mmh
Experimental: (§1) Equilibrium dissociation constants (KD values) for LEPR and GP130 binding to purified anti-LEPR/GP130 bispecific antibodies were determined using a real-time surface plasmon resonance biosensor using a Biacore 4000 instrument. All binding studies were performed in 10 mM HEPES, 150 mM NaCl, 3 mM EDTA, and 0.05% v/v Surfactant Tween-20, pH 7.4 (HBS-ET) running buffer at 25° C. and 37° C. The Biacore sensor surface was first derivatized by amine coupling with a monoclonal mouse anti-human Fc antibody (GE, #BR-1008-39) to capture anti-LEPR/GP130 bispecific antibodies. […] Different concentrations of LEPR or GP130 reagents were first prepared in HBS-ET running buffer (100 nM-3.7 nM; 3-fold serial dilution) and were injected over anti-human Fc captured anti-LEPR/GP130 bispecific antibody surface for 4 minutes at a flow rate of 30 μL/minute, while the dissociation of bispecific antibody bound LEPR or GP130 reagent was monitored for 10 minutes in HBS-ET running buffer. Kinetic association (kₐ) and dissociation (kd) rate constants were determined by fitting the real-time binding sensorgrams to a 1:1 binding model with mass transport limitation using Scrubber 2.0c curve-fitting software. Binding dissociation equilibrium constants (KD) and dissociative half-lives (t ½) were calculated from the kinetic rate constants as: […]

| 100 nM hLEPR-MMH Bound (RU) | Kd [nM] | koff [s⁻¹] | kon [M⁻¹ s⁻¹] | t½ [min] | Binder |
| --- | --- | --- | --- | --- | --- |
| 42 | 7.13 | 0.000162 | 22700 | 71 | B1 |
| 39 | 7.11 | 0.000164 | 23100 | 70 | B2 |
| 46 | 7.49 | 0.000158 | 21100 | 73 | B3 |
| 40 | 7.95 | 0.00018 | 22600 | 64 | B4 |
| 44 | 7.31 | 0.000172 | 23600 | 67 | B5 |
| 40 | 6.36 | 0.000153 | 24000 | 76 | B6 |
| 41 | 7.35 | 0.000176 | 24000 | 66 | B7 |
| 40 | 6.46 | 0.000165 | 25500 | 70 | B8 |
| 47 | 6.75 | 0.000165 | 24500 | 70 | B9 |
| 36 | 7.16 | 0.000194 | 27100 | 60 | B10 |

Each binder was assayed against T2, Macaca Fascicularis LEPR extracellular domain expressed with a C-terminal myc-myc-hexahistidine tag (Macaca fascicularis, UniProt Q9MYL0 22-837 (rhesus entry)) in the same assay as above.
T2 construct: Monomeric reagent; the whole entry is the construct with its tag; also called mfLEPR-MMH
Experimental: as §1

| 100 nM mfLEPR-MMH Bound (RU) | Kd [nM] | koff [s⁻¹] | kon [M⁻¹ s⁻¹] | t½ [min] | Binder |
| --- | --- | --- | --- | --- | --- |
| 107 | 2.8 | 0.000119 | 42500 | 97 | B1 |
| 97 | 3.27 | 0.000132 | 40400 | 87 | B2 |
| 109 | 2.74 | 0.000117 | 42500 | 99 | B3 |
| 102 | 2.96 | 0.000121 | 40800 | 96 | B4 |
| 107 | 2.88 | 0.000119 | 41300 | 97 | B5 |
| 103 | 2.9 | 0.000122 | 42000 | 95 | B6 |
| 102 | 2.79 | 0.000117 | 41800 | 99 | B7 |
| 102 | 2.96 | 0.000126 | 42600 | 92 | B8 |
| 113 | 2.97 | 0.000124 | 41800 | 93 | B9 |
| 96 | 2.65 | 0.000111 | 41900 | 104 | B10 |

What follows are binders tested against T1, human LEPR extracellular domain … (assay: SPR Biacore 4000, bsAb captured by anti-human Fc, 37 C).
Experimental: as §1

| 100 nM hLEPR-MMH Bound (RU) | Kd [nM] | koff [s⁻¹] | kon [M⁻¹ s⁻¹] | t½ [min] | Binder |
| --- | --- | --- | --- | --- | --- |
| 65 | 20.5 | 0.000791 | 38500 | 15 | B1 |
| 60 | 23 | 0.000842 | 36600 | 14 | B2 |
| 70 | 18.3 | 0.00076 | 41400 | 15 | B3 |
| 65 | 19.2 | 0.000729 | 37900 | 16 | B4 |
| 69 | 20.5 | 0.000798 | 39000 | 14 | B5 |
| 63 | 20 | 0.000792 | 39700 | 15 | B6 |
| 63 | 19.5 | 0.000691 | 35500 | 17 | B7 |
| 65 | 19.7 | 0.000791 | 40100 | 15 | B8 |
| 74 | 20.8 | 0.000787 | 37700 | 15 | B9 |
| 61 | 18.4 | 0.000622 | 33800 | 19 | B10 |

What follows are binders tested against T2, Macaca Fascicularis LEPR extracellular … in the same assay as above.
Experimental: as §1

| 100 nM mfLEPR-MMH Bound (RU) | Kd [nM] | koff [s⁻¹] | kon [M⁻¹ s⁻¹] | t½ [min] | Binder |
| --- | --- | --- | --- | --- | --- |
| 163 | 5.64 | 0.000565 | 100000 | 20 | B1 |
| 148 | 5.88 | 0.000567 | 96400 | 20 | B2 |
| 167 | 5.3 | 0.000554 | 105000 | 21 | B3 |
| 159 | 5.64 | 0.000541 | 96000 | 21 | B4 |
| 163 | 6.17 | 0.000571 | 92500 | 20 | B5 |
| 155 | 5.49 | 0.000565 | 103000 | 20 | B6 |
| 158 | 5.25 | 0.000519 | 98900 | 22 | B7 |
| 158 | 8.81 | 0.00058 | 65800 | 20 | B8 |
| 169 | 5.9 | 0.000589 | 99900 | 20 | B9 |
| 154 | 8.09 | 0.000506 | 62500 | 23 | B10 |
